The record followed here is article PMC11286949.

As a reminder, the Kd is a measure of binding affinity in units of concentration. Low readings indicate a tighter complex, high ones a looser complex. One may read the stoichiometry N as a count of units in the complex or per binding partner.

For data set [1], the target named is T1, Arc1p dNdM1 (Saccharomyces cerevisiae) (UniProt P46672).
T1 sequence (P46672 whole entry, looked up): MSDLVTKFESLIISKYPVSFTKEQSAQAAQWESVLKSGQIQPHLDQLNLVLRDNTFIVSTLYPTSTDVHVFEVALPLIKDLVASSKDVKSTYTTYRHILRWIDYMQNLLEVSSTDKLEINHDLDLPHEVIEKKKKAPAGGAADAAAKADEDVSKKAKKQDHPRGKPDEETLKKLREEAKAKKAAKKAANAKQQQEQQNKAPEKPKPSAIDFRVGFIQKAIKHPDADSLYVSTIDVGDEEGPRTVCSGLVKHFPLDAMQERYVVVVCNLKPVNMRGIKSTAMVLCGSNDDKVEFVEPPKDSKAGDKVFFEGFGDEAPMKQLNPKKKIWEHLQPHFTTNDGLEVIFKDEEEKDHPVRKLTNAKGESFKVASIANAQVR
The experiment in a line: ITC. As to conditions: FP: 25 mM Tris-HCl pH 7.5, 2 mM MgCl2, 50 mM NaCl (Trbp111) or 150 mM NaCl (Arc1p), room temperature, ITC: 25 mM Tris-HCl pH 7.4, 150 mM NaCl.

Data set [2] addresses Aquifex aeolicus Trbp111 (tRNA-binding protein, 111 amino acids) (Aquifex aeolicus). Description: crystal structure; unbound (apo) Trbp111, 2.3 Å, space group C222_(1); crystals grew from a mixture with tRNA^Ile, 0.2 M lithium sulfate, 0.1 M Tris-HCl pH 8.5, 25% PEG 3350.
The target of data set [3] is T2, Arc1p dN del1-131 (Saccharomyces cerevisiae) (UniProt P46672).
T2 sequence: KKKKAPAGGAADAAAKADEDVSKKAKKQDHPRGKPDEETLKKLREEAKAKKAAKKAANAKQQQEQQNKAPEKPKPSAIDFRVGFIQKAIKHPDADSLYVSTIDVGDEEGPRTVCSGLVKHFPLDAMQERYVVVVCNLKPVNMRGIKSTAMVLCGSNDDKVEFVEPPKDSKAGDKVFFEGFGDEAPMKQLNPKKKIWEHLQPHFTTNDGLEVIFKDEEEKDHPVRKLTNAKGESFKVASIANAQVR
Description: ITC. As to conditions: FP: 25 mM Tris-HCl pH 7.5, 2 mM MgCl2, 50 mM NaCl (Trbp111) or 150 mM NaCl (Arc1p), room temperature, ITC: 25 mM Tris-HCl pH 7.4, 150 mM NaCl.

In the case of “AGGCUUGUAGCUCAGGUGGUUAGAGCGCACCCCUGAUAAGGGUGAGGGCGGUGGUUCAAGUCCACUCAGGCCUACCA [tRNAIle WT]”, the Kd in data set [1] came out at 2550 nM. In the case of “Aquifex aeolicus Trbp111 (tRNA-binding protein, 111 amino acids) (natural protein)”, the stoichiometry N in data set [2] stood at 2.

In the case of tRNAIle G18C/G19C, the Kd in data set [3] was 3320 nM.
